Test results: article doi:10.1101/2023.12.13.571451 (bioRxiv, 2023)

Target: T1, Tsa1^WT-HA (peroxiredoxin Tsa1, single C-terminal HA tag at the endogenous locus) (S. cerevisiae, UniProt P34760 1-196)
T1 sequence (looked up): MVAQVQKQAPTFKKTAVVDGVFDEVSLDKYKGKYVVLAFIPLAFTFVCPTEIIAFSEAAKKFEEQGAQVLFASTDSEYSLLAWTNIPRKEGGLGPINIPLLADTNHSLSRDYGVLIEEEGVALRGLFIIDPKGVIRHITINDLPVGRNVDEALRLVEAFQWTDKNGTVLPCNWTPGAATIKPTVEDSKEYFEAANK
Experiment: in vitro thioredoxin reaction, non-reducing SDS-PAGE with immunoblot

- binding result: binds
B1: recombinant Trx1-HIS (enzyme, S. cerevisiae, UniProt P22217 1-103, looked up)
chain: MVTQFKTASEFDSAIAQDKLVVVDFYATWCGPCKMIAPMIEKFSEQYPQADFYKLDVDELGDVAQKNEVSAMPTLLLFKNGKEVAKVVGANPAAIKQAIAANA
